For one molecule, stoichiometry N, Kd and koff results are on record in article PMC11284679, “A designed ankyrin-repeat protein that targets Parkinson’s disease-associated LRRK2” (The Journal of Biological Chemistry, 2024).

In test [1] the target is LRRK2^RCKW (purified for cryo-EM from His6-Z-TEV-LRRK2^RCKW). The test can be described thus: mass photometry; Refeyn Two MP; LRRK2^RCKW alone or with a 2.5-fold excess of DARPin E11; 20 mM Hepes pH 7.4, 150 mM NaCl, 2.5 mM MgCl2, 5% glycerol, 20 μM GDP, 0.5 mM TCEP.
The target of test [2] is T1, biotinylated LRRK2^RCKW (LRRK2 residues 1327 to 2527) (UniProt Q5S007 1327-2527, biotin (biotinylated; site not stated)).
T1 construct: Leucine rich repeat kinase 2 (LRRK2), C-terminal catalytic half with ROC GTPase, COR-A, COR-B, kinase and WD40 domains, residues 1327 to 2527; also called biotinylated LRRK2^RCKW protein; source: Sf9 (baculovirus, medium with 0.1 mM biotin), purified (Ni-NTA, TEV, Ni-NTA, S200 gel filtration); not shown: His6, N-terminal, cleaved
T1 sequence (looked up): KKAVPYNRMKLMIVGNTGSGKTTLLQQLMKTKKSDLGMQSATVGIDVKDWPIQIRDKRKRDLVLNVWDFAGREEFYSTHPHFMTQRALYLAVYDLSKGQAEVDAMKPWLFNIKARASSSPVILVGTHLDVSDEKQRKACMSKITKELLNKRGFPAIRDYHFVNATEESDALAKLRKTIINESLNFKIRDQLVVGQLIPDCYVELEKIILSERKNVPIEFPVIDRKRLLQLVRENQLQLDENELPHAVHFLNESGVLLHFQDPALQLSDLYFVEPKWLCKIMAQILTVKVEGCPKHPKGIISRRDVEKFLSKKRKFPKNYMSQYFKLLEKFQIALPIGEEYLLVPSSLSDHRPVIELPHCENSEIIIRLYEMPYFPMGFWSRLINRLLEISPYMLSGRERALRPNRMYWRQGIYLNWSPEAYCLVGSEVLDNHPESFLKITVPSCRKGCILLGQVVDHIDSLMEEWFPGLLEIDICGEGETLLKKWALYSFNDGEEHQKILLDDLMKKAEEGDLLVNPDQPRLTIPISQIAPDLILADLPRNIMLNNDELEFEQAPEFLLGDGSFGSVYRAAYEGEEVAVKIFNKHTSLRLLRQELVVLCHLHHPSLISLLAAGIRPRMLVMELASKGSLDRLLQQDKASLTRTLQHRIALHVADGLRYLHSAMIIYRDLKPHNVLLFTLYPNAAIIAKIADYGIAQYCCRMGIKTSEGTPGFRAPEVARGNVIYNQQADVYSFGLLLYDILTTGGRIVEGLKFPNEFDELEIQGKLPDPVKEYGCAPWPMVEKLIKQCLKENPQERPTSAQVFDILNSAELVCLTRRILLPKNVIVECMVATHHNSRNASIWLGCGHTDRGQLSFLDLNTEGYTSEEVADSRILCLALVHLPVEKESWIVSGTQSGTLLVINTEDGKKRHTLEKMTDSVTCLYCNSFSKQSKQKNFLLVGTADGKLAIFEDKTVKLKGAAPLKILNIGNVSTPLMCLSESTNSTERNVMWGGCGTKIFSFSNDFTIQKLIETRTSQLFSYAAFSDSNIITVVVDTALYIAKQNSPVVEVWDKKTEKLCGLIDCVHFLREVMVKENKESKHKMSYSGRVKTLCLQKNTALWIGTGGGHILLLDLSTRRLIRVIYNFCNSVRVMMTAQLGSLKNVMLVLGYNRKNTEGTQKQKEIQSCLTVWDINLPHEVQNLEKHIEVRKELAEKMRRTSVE
The test can be described thus: BLI; Octet Red96, 25 °C; biotinylated LRRK2^RCKW on streptavidin biosensors; DARPin E11 15 to 1000 nM; 50 mM Hepes pH 8.0, 150 mM NaCl, 10 mM MgCl2, 5% glycerol, 0.1% BSA, 0.05% Tween 20, 500 μM GDP; Req fitted to a Langmuir model. The note with it: both partners purified. (In general: BLI is a label-free optical method that tracks binding on a fibre tip over time.)

Test [3] has as its target T1, biotinylated LRRK2^RCKW (LRRK2 residues …). The test can be described thus: SPR; Biacore T200; 850 RU biotinylated LRRK2^RCKW on a streptavidin-coated Series S CM5 chip; DARPin E11 in the mobile phase, 30 μl/min; 20 mM Hepes pH 7.4, 150 mM NaCl, 0.5 mM TCEP, 20 μM GDP, 2.5 mM MgCl2; plateau values fitted to a Langmuir model. Particulars: both partners purified.

B1: DARPin E11 (designed binder)
chain: MRGSHHHHHHHHGSDLGKKLLEAARAGQDDEVRILMANGADVNATDEAGVTPLHLAADSGHLEIVEVLLKTGADVNAWDHYGFTPLHLAAHVGHLEIVEVLLKAGADVNAQDHAGWTPLHLAALYGHLEIVEVLLKHGADVNAQDMWGETPFDLAIDNGNEDIAEVLQKAAKLNDYKDDDDK
notes: Designed ankyrin-repeat protein selected by ribosome display against LRRK2^RCKW; also called 008-807-2362-H9; 8xHis-DARPin E11-3xFLAG; source: E. coli Rosetta, purified (Ni-NTA, SEC)
As to B1, the stoichiometry N (as a rule, a count of units in the complex or per binding partner) in test [1] was found to be 1. Besides, the Kd (usually the constant that tells how readily two partners part at equilibrium) in test [2] is 11 nM. In addition, in test [3], the affinity, expressed as Kd, was 70 nM and the koff (usually the first-order rate constant of dissociation) was around 0.005 s⁻¹.
